This is an account of results in patent publication US20250171562A1 (ALK ABELL, published 2025).

B1: CIgG4F4A1(RS) (Fc fusion)
chain 1: GPPCPPCPAPEFLGGPSVFLFPPKPKDTLMISRTPEVTCVVVDVSQEDPEVQFNWYVDGVEVHNAKTKPREEQFNSTYRVVSVLTVLHQDWLNGKEYKCKVSNKGLPSSIEKTISKAKGQPREPQVYTLPPCQEEMTKNQVSLWCLVKGFYPSDIAVEWESNGQPENNYKTTPPVLDSDGSFFLYSRLTVDKSRWQEGNVFSCSVMHEALHNHYTQKSLSLSLGKRSDVQLQESGGGLVQAGGSLRLSCAVSGLSFSSMGWFRQPPGKEREFVAAISLYSGSTYYADSVKGRFTISSDNAKSTVYLQMNSLKPEDAAVYFCAADRQRTWSTFYASRQATYNYWGQGTQVTVTS
chain 2: GPPCPPCPAPEFLGGPSVFLFPPKPKDTLMISRTPEVTCVVVDVSQEDPEVQFNWYVDGVEVHNAKTKPREEQFNSTYRVVSVLTVLHQDWLNGKEYKCKVSNKGLPSSIEKTISKAKGQPREPQVCTLPPSQEEMTKNQVSLSCAVKGFYPSDIAVEWESNGQPENNYKTTPPVLDSDGSFFLVSRLTVDKSRWQEGNVFSCSVMHEALHNHYTQKSLSLSLGKRSEVQLLESGGGLVQPGGSLRLSCAASGFTFGNYDMAWVRQAPGKRPEWVSSIDTGGDITHYADSVKGRFTISRDNAKNTLYLQMNSLRPEDTAVYWCATDEEYALGPNEFDYYGQGTLVTVSS
B2: CIgG4F4A1(G4S)1 (Fc fusion)
chain 1: GPPCPPCPAPEFLGGPSVFLFPPKPKDTLMISRTPEVTCVVVDVSQEDPEVQFNWYVDGVEVHNAKTKPREEQFNSTYRVVSVLTVLHQDWLNGKEYKCKVSNKGLPSSIEKTISKAKGQPREPQVYTLPPCQEEMTKNQVSLWCLVKGFYPSDIAVEWESNGQPENNYKTTPPVLDSDGSFFLYSRLTVDKSRWQEGNVFSCSVMHEALHNHYTQKSLSLSLGKGGGGSDVQLQESGGGLVQAGGSLRLSCAVSGLSFSSMGWFRQPPGKEREFVAAISLYSGSTYYADSVKGRFTISSDNAKSTVYLQMNSLKPEDAAVYFCAADRQRTWSTFYASRQATYNYWGQGTQVTVTS
chain 2: GPPCPPCPAPEFLGGPSVFLFPPKPKDTLMISRTPEVTCVVVDVSQEDPEVQFNWYVDGVEVHNAKTKPREEQFNSTYRVVSVLTVLHQDWLNGKEYKCKVSNKGLPSSIEKTISKAKGQPREPQVCTLPPSQEEMTKNQVSLSCAVKGFYPSDIAVEWESNGQPENNYKTTPPVLDSDGSFFLVSRLTVDKSRWQEGNVFSCSVMHEALHNHYTQKSLSLSLGKGGGGSEVQLLESGGGLVQPGGSLRLSCAASGFTFGNYDMAWVRQAPGKRPEWVSSIDTGGDITHYADSVKGRFTISRDNAKNTLYLQMNSLRPEDTAVYWCATDEEYALGPNEFDYYGQGTLVTVSS
B3: NIgG4F4A1(G4S)1 (Fc fusion)
chain 1: DVQLQESGGGLVQAGGSLRLSCAVSGLSFSSMGWFRQPPGKEREFVAAISLYSGSTYYADSVKGRFTISSDNAKSTVYLQMNSLKPEDAAVYFCAADRQRTWSTFYASRQATYNYWGQGTQVTVTSGGGGSGPPCPPCPAPEFLGGPSVFLFPPKPKDTLMISRTPEVTCVVVDVSQEDPEVQFNWYVDGVEVHNAKTKPREEQFNSTYRVVSVLTVLHQDWLNGKEYKCKVSNKGLPSSIEKTISKAKGQPREPQVYTLPPCQEEMTKNQVSLWCLVKGFYPSDIAVEWESNGQPENNYKTTPPVLDSDGSFFLYSRLTVDKSRWQEGNVFSCSVMHEALHNHYTQKSLSLSLGK
chain 2: EVQLLESGGGLVQPGGSLRLSCAASGFTFGNYDMAWVRQAPGKRPEWVSSIDTGGDITHYADSVKGRFTISRDNAKNTLYLQMNSLRPEDTAVYWCATDEEYALGPNEFDYYGQGTLVTVSSGGGGSGPPCPPCPAPEFLGGPSVFLFPPKPKDTLMISRTPEVTCVVVDVSQEDPEVQFNWYVDGVEVHNAKTKPREEQFNSTYRVVSVLTVLHQDWLNGKEYKCKVSNKGLPSSIEKTISKAKGQPREPQVCTLPPSQEEMTKNQVSLSCAVKGFYPSDIAVEWESNGQPENNYKTTPPVLDSDGSFFLVSRLTVDKSRWQEGNVFSCSVMHEALHNHYTQKSLSLSLGK
B4: NIgG4F4A1(G4S)3 (Fc fusion)
chain 1: DVQLQESGGGLVQAGGSLRLSCAVSGLSFSSMGWFRQPPGKEREFVAAISLYSGSTYYADSVKGRFTISSDNAKSTVYLQMNSLKPEDAAVYFCAADRQRTWSTFYASRQATYNYWGQGTQVTVTSGGGGSGGGGSGGGGSGPPCPPCPAPEFLGGPSVFLFPPKPKDTLMISRTPEVTCVVVDVSQEDPEVQFNWYVDGVEVHNAKTKPREEQFNSTYRVVSVLTVLHQDWLNGKEYKCKVSNKGLPSSIEKTISKAKGQPREPQVYTLPPCQEEMTKNQVSLWCLVKGFYPSDIAVEWESNGQPENNYKTTPPVLDSDGSFFLYSRLTVDKSRWQEGNVFSCSVMHEALHNHYTQKSLSLSLGK
chain 2: EVQLLESGGGLVQPGGSLRLSCAASGFTFGNYDMAWVRQAPGKRPEWVSSIDTGGDITHYADSVKGRFTISRDNAKNTLYLQMNSLRPEDTAVYWCATDEEYALGPNEFDYYGQGTLVTVSSGGGGSGGGGSGGGGSGPPCPPCPAPEFLGGPSVFLFPPKPKDTLMISRTPEVTCVVVDVSQEDPEVQFNWYVDGVEVHNAKTKPREEQFNSTYRVVSVLTVLHQDWLNGKEYKCKVSNKGLPSSIEKTISKAKGQPREPQVCTLPPSQEEMTKNQVSLSCAVKGFYPSDIAVEWESNGQPENNYKTTPPVLDSDGSFFLVSRLTVDKSRWQEGNVFSCSVMHEALHNHYTQKSLSLSLGK
B5: NIgG4F4A1(RS) (Fc fusion)
chain 1: DVQLQESGGGLVQAGGSLRLSCAVSGLSFSSMGWFRQPPGKEREFVAAISLYSGSTYYADSVKGRFTISSDNAKSTVYLQMNSLKPEDAAVYFCAADRQRTWSTFYASRQATYNYWGQGTQVTVTSRSGPPCPPCPAPEFLGGPSVFLFPPKPKDTLMISRTPEVTCVVVDVSQEDPEVQFNWYVDGVEVHNAKTKPREEQFNSTYRVVSVLTVLHQDWLNGKEYKCKVSNKGLPSSIEKTISKAKGQPREPQVYTLPPCQEEMTKNQVSLWCLVKGFYPSDIAVEWESNGQPENNYKTTPPVLDSDGSFFLYSRLTVDKSRWQEGNVFSCSVMHEALHNHYTQKSLSLSLGK
chain 2: EVQLLESGGGLVQPGGSLRLSCAASGFTFGNYDMAWVRQAPGKRPEWVSSIDTGGDITHYADSVKGRFTISRDNAKNTLYLQMNSLRPEDTAVYWCATDEEYALGPNEFDYYGQGTLVTVSSRSGPPCPPCPAPEFLGGPSVFLFPPKPKDTLMISRTPEVTCVVVDVSQEDPEVQFNWYVDGVEVHNAKTKPREEQFNSTYRVVSVLTVLHQDWLNGKEYKCKVSNKGLPSSIEKTISKAKGQPREPQVCTLPPSQEEMTKNQVSLSCAVKGFYPSDIAVEWESNGQPENNYKTTPPVLDSDGSFFLVSRLTVDKSRWQEGNVFSCSVMHEALHNHYTQKSLSLSLGK
B6: NIgG4F4A1(G4S)2 (Fc fusion)
chain 1: DVQLQESGGGLVQAGGSLRLSCAVSGLSFSSMGWFRQPPGKEREFVAAISLYSGSTYYADSVKGRFTISSDNAKSTVYLQMNSLKPEDAAVYFCAADRQRTWSTFYASRQATYNYWGQGTQVTVTSGGGGSGGGGSGPPCPPCPAPEFLGGPSVFLFPPKPKDTLMISRTPEVTCVVVDVSQEDPEVQFNWYVDGVEVHNAKTKPREEQFNSTYRVVSVLTVLHQDWLNGKEYKCKVSNKGLPSSIEKTISKAKGQPREPQVYTLPPCQEEMTKNQVSLWCLVKGFYPSDIAVEWESNGQPENNYKTTPPVLDSDGSFFLYSRLTVDKSRWQEGNVFSCSVMHEALHNHYTQKSLSLSLGK
chain 2: EVQLLESGGGLVQPGGSLRLSCAASGFTFGNYDMAWVRQAPGKRPEWVSSIDTGGDITHYADSVKGRFTISRDNAKNTLYLQMNSLRPEDTAVYWCATDEEYALGPNEFDYYGQGTLVTVSSGGGGSGGGGSGPPCPPCPAPEFLGGPSVFLFPPKPKDTLMISRTPEVTCVVVDVSQEDPEVQFNWYVDGVEVHNAKTKPREEQFNSTYRVVSVLTVLHQDWLNGKEYKCKVSNKGLPSSIEKTISKAKGQPREPQVCTLPPSQEEMTKNQVSLSCAVKGFYPSDIAVEWESNGQPENNYKTTPPVLDSDGSFFLVSRLTVDKSRWQEGNVFSCSVMHEALHNHYTQKSLSLSLGK

Broadly, the EC50 is the concentration at which the effect is half-maximal.

In this experiment the target is T1, recombinant human IgE (human, UniProt P01854-1 1-428).
T1 construct: made in-house (ALK); preloaded on immobilised FcεRIα in the displacement ELISA
T1 sequence (P01854 other isoform, or with tags, fused parts or gaps): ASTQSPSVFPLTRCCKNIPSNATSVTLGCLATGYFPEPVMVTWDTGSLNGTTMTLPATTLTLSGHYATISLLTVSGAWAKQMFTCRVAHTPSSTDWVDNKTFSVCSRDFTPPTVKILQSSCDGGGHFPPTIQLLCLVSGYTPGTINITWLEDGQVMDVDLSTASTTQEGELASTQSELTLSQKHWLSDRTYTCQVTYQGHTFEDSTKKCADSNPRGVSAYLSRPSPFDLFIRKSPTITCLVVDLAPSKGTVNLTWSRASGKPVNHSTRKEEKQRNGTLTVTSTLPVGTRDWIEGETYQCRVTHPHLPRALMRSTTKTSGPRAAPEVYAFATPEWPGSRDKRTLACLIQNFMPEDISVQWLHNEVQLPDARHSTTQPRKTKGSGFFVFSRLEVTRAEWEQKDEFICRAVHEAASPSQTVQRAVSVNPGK
Briefly: IgE-FcεRIα displacement ELISA. In short, it runs like this:
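sdAbs at pM–μM were incubated 1 h on preformed complexes of 13 ng/ml recombinant human IgE with avi-tag-biotinylated human FcεRIα captured on streptavidin.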
For orientation: An ELISA detects its analyte on a solid surface through an enzyme-linked reagent.
Regarding B1, the EC50 is 0.09 µM and the Max effect stood at 70%.
In the case of B2, the EC50 amounted to 0.017 µM and the Max effect amounted to 90%.
Regarding B3, the Max effect is over 95%.
Same read-out and setting: next, B4: over 95%; B5: over 95%.
As to B6, the Max effect is over 95%.
